Results as given in patent US20240092919A1 (Ablynx, published 2024).

T1: Cynomolgus TCR(AEA41865/AEA41866)-zipper protein (cynomolgus monkey)
T1 construct: also called cyTCR-zipper protein; cynoTCR zipper
T1 TCR alpha: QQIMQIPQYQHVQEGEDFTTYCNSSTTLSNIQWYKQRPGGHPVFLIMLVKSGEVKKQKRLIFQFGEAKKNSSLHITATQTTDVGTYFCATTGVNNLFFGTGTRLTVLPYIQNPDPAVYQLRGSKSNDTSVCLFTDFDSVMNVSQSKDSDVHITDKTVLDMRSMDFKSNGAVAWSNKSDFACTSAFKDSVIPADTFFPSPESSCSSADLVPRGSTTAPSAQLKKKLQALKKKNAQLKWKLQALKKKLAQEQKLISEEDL
T1 TCR beta: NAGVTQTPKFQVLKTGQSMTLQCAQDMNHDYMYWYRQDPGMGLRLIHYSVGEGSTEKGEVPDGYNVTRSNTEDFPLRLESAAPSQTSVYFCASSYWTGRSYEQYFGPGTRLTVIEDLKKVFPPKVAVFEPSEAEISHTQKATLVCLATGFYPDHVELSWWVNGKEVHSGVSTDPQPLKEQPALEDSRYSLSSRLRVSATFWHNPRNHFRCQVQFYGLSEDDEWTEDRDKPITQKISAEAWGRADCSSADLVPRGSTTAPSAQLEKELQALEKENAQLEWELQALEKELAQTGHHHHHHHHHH


Target: T1, Cynomolgus …
Assay: SPR ProteOn off-rate screen
Excerpt: Unique ISVD clones, i.e. clones with a unique sequence, were subsequently selected and screened to determine their off-rate. To this purpose, the ISVD containing periplasmic extracts were screened on huTCR-zipper and cyTCR-zipper protein by SPR on a ProteOn XPR36 instrument. The zipper proteins were immobilized on a GLC sensor chip (between 4300 and 5100RU) via amine coupling chemistry, using EDC/sulfo-NHS for activation of the carboxyl groups on the chip surface (running buffer: HBS-EP+, pH7.4). Periplasmic extracts were injected at 1/10 dilution for 2 min (at a flow rate of 45 μL/min) and dissociation was followed for 900 s. A pulse of 100 s of 3 M MgCl2 at 45 μL/min was used for regeneration. […] Processed sensorgrams were fitted with the Langmuir model (1:1 interaction) using ProteOn Manager 3.1.0 (Version 3.1.0.6) software.

Row | koff | Binder
1 | 0.00216 s⁻¹ | T017000381 (VHH) VHH: EVQLVESGGGVVQPGGSLRLSCVASGAVHKINFLGWYRQAPGKEREKVAHISIGDQTDYADSAKGRFTISRDESKNMVYLQMNSLRPEDTALYFCRAMSRIYPYDYWGQGTLVTVSS
2 | 0.000152 s⁻¹ | T017000379 (VHH) VHH: EVQLVESGGGVVQPGGSLRLSCVASWDVHQINFYGWYRQAPGKEREKVAHISIGDQTDYADSAKGRFTISRDESKNMVYLQMNSLRPEDTALYFCRAMSKIWPYDYWGQGTLVTVSS
3 | 0.00206 s⁻¹ | T017000386 (VHH) VHH: EVQLVESGGGVVQPGGSLRLSCVASGSVHKLNFLGWYRQAPGKEREKVAHISIGDQTDYADSAKGRFTISRDESKNMVYLQMNSLRPEDTALYFCRAFSRIWPYDWWGQGTLVTVSS
4 | 0.00383 s⁻¹ | T017000384 (VHH) VHH: EVQLVESGGGVVQPGGSLRLSCVASGAVHQLNFYGWYRQAPGKEREKVAHISIGDQTDYADSAKGRFTISRDESKNMVYLQMNSLRPEDTALYFCRAMSRIWPYDYWGQGTLVTVSS
5 | 0.00138 s⁻¹ | T017000406 (VHH) VHH: EVQLVESGGGVVQPGGSLRLSCVASGYVHQINFYGWYRQAPGKEREKVAHISIGDQTDYADSAKGRFTISRDESKNMVYLQMNSLRPEDTALYFCRAMSRIWPYDYWGQGTLVTVSS
6 | 0.00152 s⁻¹ | T017000403 (VHH) VHH: EVQLVESGGGVVQPGGSLRLSCVASWDVHQINFLGWYRQAPGKEREKVAHISIGDQTDYADSAKGRFTISRDESKNMVYLQMNSLRPEDTALYFCRAMSRIWPYDYWGQGTLVTVSS
7 | 0.00289 s⁻¹ | T017000382 (VHH) VHH: EVQLVESGGGVVQPGGSLRLSCVASGSVHKINFYGWYRQAPGKEREKVAHISIGDQTDYADSAKGRFTISRDESKNMVYLQMNSLRPEDTALYFCRAMSRIYPYDWWGQGTLVTVSS
8 | 0.00245 s⁻¹ | T017000397 (VHH) VHH: EVQLVESGGGVVQPGGSLRLSCVASGSVHQLNFLGWYRQAPGKEREKVAHISIGDQTDYADSAKGRFTISRDESKNMVYLQMNSLRPEDTALYFCRAMSRIWPYDYWGQGTLVTVSS
9 | 0.00183 s⁻¹ | T017000401 (VHH) VHH: EVQLVESGGGVVQPGGSLRLSCVASGSVHKINFYGWYRQAPGKEREKVAHISIGDQTDYADSAKGRFTISRDESKNMVYLQMNSLRPEDTALYFCRAMSRIWPYDWWGQGTLVTVSS
10 | 0.00161 s⁻¹ | T017000391 (VHH) VHH: EVQLVESGGGVVQPGGSLRLSCVASGAVHKINFYGWYRQAPGKEREKVAHISIGDQTDYADSAKGRFTISRDESKNMVYLQMNSLRPEDTALYFCRAMSRIYPYDYWGQGTLVTVSS
11 | 0.00263 s⁻¹ | T017000398 (VHH) VHH: EVQLVESGGGVVQPGGSLRLSCVASYDVHQINFYGWYRQAPGKEREKVAHISIGDQTDYADSAKGRFTISRDESKNMVYLQMNSLRPEDTALYFCRAMSRIWPYDYWGQGTLVTVSS

Continued, binder first:

Row | Binder | koff
12 | T017000354 (VHH) VHH: EVQLVESGGGVVQPGGSLRLSCVASGAVHKINFYGWYRQAPGKEREKVAHISIGDQTDYADSAKGRFTISRDESKNMVYLQMNSLRPEDTALYFCRAMSRIWPYDYWGQGTLVTVSS | 0.000875 s⁻¹
13 | T017000365 (VHH) VHH: EVQLVESGGGVVQPGGSLRLSCVASGAVHKLNFLGWYRQAPGKEREKVAHISIGDQTDYADSAKGRFTISRDESKNMVYLQMNSLRPEDTALYFCRAMSRIWPYDWWGQGTLVTVSS | 0.00201 s⁻¹
14 | T017000369 (VHH) VHH: EVQLVESGGGVVQPGGSLRLSCVASGSVHKLNFYGWYRQAPGKEREKVAHISIGDQTDYADSAKGRFTISRDESKNMVYLQMNSLRPEDTALYFCRAMSRIWPYDWWGQGTLVTVSS | 0.00155 s⁻¹
15 | T017000359 (VHH) VHH: EVQLVESGGGVVQPGGSLRLSCVASWDVHQINFYGWYRQAPGKEREKVAHISIGDQTDYADSAKGRFTISRDESKNMVYLQMNSLRPEDTALYFCRAFSKIYPYDYWGQGTLVTVSS | 0.000401 s⁻¹
16 | T017000372 (VHH) VHH: EVQLVESGGGVVQPGGSLRLSCVASGYVHKINFYGWYRQAPGKEREKVAHISIGDQTDYADSAKGRFTISRDESKNMVYLQMNSLRPEDTALYFCRAMSRIYPYDYWGQGTLVTVSS | 0.00122 s⁻¹
17 | T017000374 (VHH) VHH: EVQLVESGGGVVQPGGSLRLSCVASYDVHQINFYGWYRQAPGKEREKVAHISIGDQTDYADSAKGRFTISRDESKNMVYLQMNSLRPEDTALYFCRAMSKIWPYDYWGQGTLVTVSS | 0.000523 s⁻¹
18 | T017000360 (VHH) VHH: EVQLVESGGGVVQPGGSLRLSCVASWSVHQLNFYGWYRQAPGKEREKVAHISIGDQTDYADSAKGRFTISRDESKNMVYLQMNSLRPEDTALYFCRAMSKIYPYDWWGQGTLVTVSS | 0.00243 s⁻¹
19 | T017000367 (VHH) VHH: EVQLVESGGGVVQPGGSLRLSCVASGYVHKINFLGWYRQAPGKEREKVAHISIGDQTDYADSAKGRFTISRDESKNMVYLQMNSLRPEDTALYFCRAMSRIWPYDYWGQGTLVTVSS | 0.0011 s⁻¹
20 | T017000356 (VHH) VHH: EVQLVESGGGVVQPGGSLRLSCVASGSVHKLNFYGWYRQAPGKEREKVAHISIGDQTDYADSAKGRFTISRDESKNMVYLQMNSLRPEDTALYFCRAMSRIWPYDYWGQGTLVTVSS | 0.00089 s⁻¹
21 | T017000364 (VHH) VHH: EVQLVESGGGVVQPGGSLRLSCVASGAVHQINFLGWYRQAPGKEREKVAHISIGDQTDYADSAKGRFTISRDESKNMVYLQMNSLRPEDTALYFCRAMSRIWPYDYWGQGTLVTVSS | 0.0026 s⁻¹
22 | T017000377 (VHH) VHH: EVQLVESGGGVVQPGGSLRLSCVASWDVHKINFYGWYRQAPGKEREKVAHISIGDQTDYADSAKGRFTISRDESKNMVYLQMNSLRPEDTALYFCRAMSRIYPYDYWGQGTLVTVSS | 0.00214 s⁻¹
23 | T017000363 (VHH) VHH: EVQLVESGGGVVQPGGSLRLSCVASGSVHKINFYGWYRQAPGKEREKVAHISIGDQTDYADSAKGRFTISRDESKNMVYLQMNSLRPEDTALYFCRAMSRIYPYDYWGQGTLVTVSS | 0.00127 s⁻¹
24 | T017000357 (VHH) VHH: EVQLVESGGGVVQPGGSLRLSCVASGYVHQLNFYGWYRQAPGKEREKVAHISIGDQTDYADSAKGRFTISRDESKNMVYLQMNSLRPEDTALYFCRAMSRIWPYDYWGQGTLVTVSS | 0.00251 s⁻¹
25 | T017000355 (VHH) VHH: EVQLVESGGGVVQPGGSLRLSCVASWDVHQLNFYGWYRQAPGKEREKVAHISIGDQTDYADSAKGRFTISRDESKNMVYLQMNSLRPEDTALYFCRAMSRIWPYDYWGQGTLVTVSS | 0.00145 s⁻¹
26 | T017000361 (VHH) VHH: EVQLVESGGGVVQPGGSLRLSCVASGSVHKINFLGWYRQAPGKEREKVAHISIGDQTDYADSAKGRFTISRDESKNMVYLQMNSLRPEDTALYFCRAMSRIWPYDYWGQGTLVTVSS | 0.000982 s⁻¹
27 | T017000368 (VHH) VHH: EVQLVESGGGVVQPGGSLRLSCVASWDVHQINFYGWYRQAPGKEREKVAHISIGDQTDYADSAKGRFTISRDESKNMVYLQMNSLRPEDTALYFCRAMSRIYPYDYWGQGTLVTVSS | 0.00129 s⁻¹
28 | T017000362 (VHH) VHH: EVQLVESGGGVVQPGGSLRLSCVASYDVHKINFYGWYRQAPGKEREKVAHISIGDQTDYADSAKGRFTISRDESKNMVYLQMNSLRPEDTALYFCRAMSKIWPYDYWGQGTLVTVSS | 0.000577 s⁻¹
29 | T017000370 (VHH) VHH: EVQLVESGGGVVQPGGSLRLSCVASGAVHQINFYGWYRQAPGKEREKVAHISIGDQTDYADSAKGRFTISRDESKNMVYLQMNSLRPEDTALYFCRAMSRIWPYDYWGQGTLVTVSS | 0.00215 s⁻¹
30 | T017000378 (VHH) VHH: EVQLVESGGGVVQPGGSLRLSCVASWDVHKINFYGWYRQAPGKEREKVAHISIGDQTDYADSAKGRFTISRDESKNMVYLQMNSLRPEDTALYFCRAMSKIWPYDYWGQGTLVTVSS | 0.000249 s⁻¹
31 | T017000371 (VHH) VHH: EVQLVESGGGVVQPGGSLRLSCVASGYVHKINFYGWYRQAPGKEREKVAHISIGDQTDYADSAKGRFTISRDESKNMVYLQMNSLRPEDTALYFCRAMSRIWPYDYWGQGTLVTVSS | 0.000612 s⁻¹
32 | T017000373 (VHH) VHH: EVQLVESGGGVVQPGGSLRLSCVASGSVHKLNFLGWYRQAPGKEREKVAHISIGDQTDYADSAKGRFTISRDESKNMVYLQMNSLRPEDTALYFCRAMSRIWPYDYWGQGTLVTVSS | 0.000913 s⁻¹
